Patent publication US20250171534A1 (D2M BIOTHERAPEUTICS, published 2025)
Positions count from the first letter of the chain named. Read-outs that look alike come from different tables or passages of the source.

What was measured:
[1] = target: T1, LILRB1-ECD-HIS (SinoBiological Cat #: 16014-H02H) (human, UniProt Q8NHL6 24-461); assay: SPR (Carterra), LILRB1-ECD-his
T1 construct: Bought protein; also called monomeric antigen LILRB1-ECD-HIS; not shown: His tag

[2] = target: T2, human LILRB1 expressed on cells (human, UniProt Q8NHL6 24-650); assay: flow cytometry, Jurkat-LILRB1 cells; blocked ligand: APC HLA-G trimer tetramer
T2 construct: In 293T cells it was expressed from pCMV3-LILRB1-GFP; also called CHO-LILRB1; Jurkat-LILRB1

[3] = target: T3, human LILRB2 expressed on cells (human, UniProt Q8N423 22-597); assay: flow cytometry, Jurkat-LILRB2 cells; blocked ligand: APC HLA-G monomer tetramer
T3 construct: In 293T cells it was expressed from pCMV3-LILRB2-GFP; also called CHO-LILRB2; Jurkat-LILRB2

[4] = target: T2, human LILRB1 expressed on cells; assay: flow cytometry, Jurkat-LILRB1 cells
[5] = target: T3, human LILRB2 expressed on cells; assay: flow cytometry, Jurkat-LILRB2 cells
[6] = target: T2, human LILRB1 expressed on cells; assay: flow cytometry, Jurkat-LILRB1 cells; remark: listed apart in the source
[7] = target: T1, LILRB1-ECD-HIS (SinoBiological Cat #: …); assay: BLI (Gator), RB1-ECD-his
[8] = target: T3, human LILRB2 expressed on cells; assay: flow cytometry, Jurkat-LILRB2 cells; remark: listed apart in the source
[9] = target: T2, human LILRB1 expressed on cells; assay: flow cytometry, Jurkat-LILRB1 cells; blocked ligand: APC HLA-G trimer tetramer; remark: listed apart in the source
[10] = target: T4, cynomolgus monkey putative LILRB2 (antigen of the Gator measurement) (cynomolgus monkey); assay: BLI (Gator), cyno RB2-his
T4 construct: also called cynomolgus monkey LILRB2

[11] = target: T5, LILRB2-ECD-HIS (SinoBiological Cat #: 14132-H02H) (human, UniProt Q8N423 22-460); assay: SPR (Carterra), LILRB2-ECD-his
T5 construct: Bought protein; also called monomeric antigen LILRB2-ECD-HIS; not shown: His tag

[12] = target: T5, LILRB2-ECD-HIS (SinoBiological Cat #: …); assay: BLI (Gator), RB2-ECD-his
[13] = target: T2, human LILRB1 expressed on cells; assay: flow cytometry on CHO-LILRB1 cells, non-linear fit of the curves of FIG. 26A
[14] = target: T6, LILRA1 expressed on cells (human, UniProt O75019 17-489); assay: flow cytometry on CHO-LILRA1 cells, non-linear fit of the curves of FIG. 26E
T6 construct: whole, on cells; GFP-tagged; also called human LILRA1; CHO-LILRA1

[15] = target: T7, LILRA6 expressed on cells (human, UniProt Q6PI73 24-481); assay: flow cytometry on CHO-LILRA6 cells, non-linear fit of the curves of FIG. 26F
T7 construct: whole, on cells; GFP-tagged; also called human LILRA6; CHO-LILRA6

[16] = target: T8, cynomolgus (monkey) LILRB2 expressed on CHO cells (cynomolgus monkey); assay: flow cytometry on CHO-cynoLILRB2 cells (CHO-cyno RB2), titrated antibody, labelled anti-human Fc, gMFI
T8 construct: whole, on cells; Putative orthologue; also called cynoLILRB2; cynoRB2

[17] = target: T6, LILRA1 expressed on cells; assay: flow cytometry on CHO-LILRA1 cells (CHO-RA1), titrated antibody, labelled anti-human Fc, gMFI
[18] = target: T9, LILRB3 expressed on cells (human, UniProt O75022 24-631); assay: flow cytometry on CHO-LILRB3 cells, non-linear fit of the curves of FIG. 26C
T9 construct: whole, on cells; Expressed with a GFP tag from the bought plasmid; also called human LILRB3; CHO-LILRB3

[19] = target: T9, LILRB3 expressed on cells; assay: flow cytometry on CHO-LILRB3 cells (CHO-RB3), titrated antibody, labelled anti-human Fc, gMFI
[20] = target: T3, human LILRB2 expressed on cells; assay: flow cytometry on CHO-LILRB2 cells (CHO-RB2), titrated antibody, labelled anti-human Fc, gMFI
[21] = target: T2, human LILRB1 expressed on cells; assay: flow cytometry on CHO-LILRB1 cells (CHO-RB1), titrated antibody, labelled anti-human Fc, gMFI
[22] = target: T3, human LILRB2 expressed on cells; assay: flow cytometry on CHO-LILRB2 cells, non-linear fit of the curves of FIG. 26B
[23] = target: T8, cynomolgus (monkey) LILRB2 expressed on …; assay: flow cytometry on CHO-cynoLILRB2 cells
[24] = target: T8, cynomolgus (monkey) LILRB2 expressed on …; assay: flow cytometry on CHO-cynoLILRB2 cells, non-linear fit of the curves of FIG. 26D
[25] = target: T2, human LILRB1 expressed on cells; assay: flow cytometry, CHO-LILRB1 cells
[26] = target: T5, LILRB2-ECD-HIS (SinoBiological Cat #: …); assay: SPR (Carterra LSA), antibody captured, antigen injected;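 further: kd obtained from kinetic analysis of antibody binding to the antigen, with association and dissociation phases fitted in the instrument software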
[27] = target: T1, LILRB1-ECD-HIS (SinoBiological Cat #: …); assay: as above
[28] = target: T3, human LILRB2 expressed on cells; assay: flow cytometry, CHO-LILRB2 cells
[29] = target: T3, human LILRB2 expressed on cells; assay: flow cytometry, CHO-LILRB2 cells; remark: listed apart in the source

T3 sequence (Q8N423 other isoform, or with tags, fused parts or gaps limits assumed): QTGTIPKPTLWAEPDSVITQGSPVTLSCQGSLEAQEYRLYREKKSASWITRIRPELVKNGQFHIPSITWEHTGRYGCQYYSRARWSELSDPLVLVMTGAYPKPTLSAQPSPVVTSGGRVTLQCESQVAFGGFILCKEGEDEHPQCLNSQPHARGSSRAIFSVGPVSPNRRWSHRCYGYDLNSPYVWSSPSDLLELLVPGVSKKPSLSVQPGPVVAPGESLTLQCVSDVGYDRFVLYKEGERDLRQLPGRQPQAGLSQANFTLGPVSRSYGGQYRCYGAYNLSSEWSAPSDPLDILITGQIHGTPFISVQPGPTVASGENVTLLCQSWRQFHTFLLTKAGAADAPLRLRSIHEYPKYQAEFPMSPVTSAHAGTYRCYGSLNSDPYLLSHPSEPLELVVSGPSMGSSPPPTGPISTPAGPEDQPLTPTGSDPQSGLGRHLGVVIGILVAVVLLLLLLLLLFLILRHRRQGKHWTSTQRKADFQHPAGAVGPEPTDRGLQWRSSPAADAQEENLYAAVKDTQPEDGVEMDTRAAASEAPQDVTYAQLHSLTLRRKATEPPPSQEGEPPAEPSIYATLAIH
T5 sequence (Q8N423 other isoform, or with tags, fused parts or gaps H02H H02H): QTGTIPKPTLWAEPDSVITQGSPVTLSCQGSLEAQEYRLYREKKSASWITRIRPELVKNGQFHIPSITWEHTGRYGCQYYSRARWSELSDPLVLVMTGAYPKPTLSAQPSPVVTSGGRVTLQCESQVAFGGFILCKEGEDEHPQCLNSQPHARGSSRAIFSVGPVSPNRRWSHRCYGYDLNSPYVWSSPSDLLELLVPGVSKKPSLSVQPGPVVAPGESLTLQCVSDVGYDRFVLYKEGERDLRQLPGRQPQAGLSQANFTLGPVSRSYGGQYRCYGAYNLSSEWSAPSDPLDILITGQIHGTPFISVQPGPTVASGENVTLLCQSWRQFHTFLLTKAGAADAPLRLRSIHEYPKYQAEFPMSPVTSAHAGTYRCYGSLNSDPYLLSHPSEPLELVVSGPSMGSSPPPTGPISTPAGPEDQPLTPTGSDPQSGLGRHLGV
T1 sequence (Q8NHL6 other isoform, or with tags, fused parts or gaps H02H H02H): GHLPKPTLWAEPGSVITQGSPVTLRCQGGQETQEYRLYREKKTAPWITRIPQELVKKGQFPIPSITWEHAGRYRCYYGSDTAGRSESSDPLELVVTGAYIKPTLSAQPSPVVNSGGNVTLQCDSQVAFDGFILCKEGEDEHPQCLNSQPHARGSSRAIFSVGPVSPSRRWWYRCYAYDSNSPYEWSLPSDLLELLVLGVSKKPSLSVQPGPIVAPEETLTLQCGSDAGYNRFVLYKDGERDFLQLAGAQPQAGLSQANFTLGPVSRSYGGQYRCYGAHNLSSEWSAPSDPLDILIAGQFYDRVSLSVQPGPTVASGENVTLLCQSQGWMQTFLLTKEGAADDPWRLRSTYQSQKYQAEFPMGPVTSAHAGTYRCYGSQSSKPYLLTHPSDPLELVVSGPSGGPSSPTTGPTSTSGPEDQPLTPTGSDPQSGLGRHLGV
T2 sequence (Q8NHL6 other isoform, or with tags, fused parts or gaps limits assumed): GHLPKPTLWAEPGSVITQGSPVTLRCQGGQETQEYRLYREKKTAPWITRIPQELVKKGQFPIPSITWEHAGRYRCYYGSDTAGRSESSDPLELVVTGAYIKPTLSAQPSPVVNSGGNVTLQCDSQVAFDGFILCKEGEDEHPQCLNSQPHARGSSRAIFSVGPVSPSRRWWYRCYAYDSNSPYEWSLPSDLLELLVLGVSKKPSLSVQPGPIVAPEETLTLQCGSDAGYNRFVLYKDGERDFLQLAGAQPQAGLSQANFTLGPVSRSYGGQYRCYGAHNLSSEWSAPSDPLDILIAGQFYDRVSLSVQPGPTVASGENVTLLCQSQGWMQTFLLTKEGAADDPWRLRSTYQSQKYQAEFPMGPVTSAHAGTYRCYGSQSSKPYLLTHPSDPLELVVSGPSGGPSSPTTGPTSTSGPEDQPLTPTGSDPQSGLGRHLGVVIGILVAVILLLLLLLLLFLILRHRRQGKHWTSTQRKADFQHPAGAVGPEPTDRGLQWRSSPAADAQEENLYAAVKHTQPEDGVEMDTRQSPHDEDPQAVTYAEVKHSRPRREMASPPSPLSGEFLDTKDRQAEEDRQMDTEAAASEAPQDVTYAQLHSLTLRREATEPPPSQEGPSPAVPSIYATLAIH
T6 sequence (O75019 17-489): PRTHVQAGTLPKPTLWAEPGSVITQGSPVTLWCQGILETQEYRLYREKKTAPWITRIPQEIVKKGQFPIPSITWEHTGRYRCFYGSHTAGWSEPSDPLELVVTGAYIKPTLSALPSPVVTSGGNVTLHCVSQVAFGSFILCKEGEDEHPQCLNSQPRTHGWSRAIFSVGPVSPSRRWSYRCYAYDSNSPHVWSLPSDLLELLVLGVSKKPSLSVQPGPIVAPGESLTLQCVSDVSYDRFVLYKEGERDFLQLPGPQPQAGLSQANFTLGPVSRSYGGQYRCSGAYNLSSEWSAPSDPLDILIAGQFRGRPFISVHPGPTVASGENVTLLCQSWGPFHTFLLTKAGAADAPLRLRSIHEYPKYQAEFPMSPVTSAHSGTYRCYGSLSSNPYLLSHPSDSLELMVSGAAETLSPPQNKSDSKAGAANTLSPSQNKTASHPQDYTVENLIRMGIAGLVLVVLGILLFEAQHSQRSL
T7 sequence (Q6PI73 24-481): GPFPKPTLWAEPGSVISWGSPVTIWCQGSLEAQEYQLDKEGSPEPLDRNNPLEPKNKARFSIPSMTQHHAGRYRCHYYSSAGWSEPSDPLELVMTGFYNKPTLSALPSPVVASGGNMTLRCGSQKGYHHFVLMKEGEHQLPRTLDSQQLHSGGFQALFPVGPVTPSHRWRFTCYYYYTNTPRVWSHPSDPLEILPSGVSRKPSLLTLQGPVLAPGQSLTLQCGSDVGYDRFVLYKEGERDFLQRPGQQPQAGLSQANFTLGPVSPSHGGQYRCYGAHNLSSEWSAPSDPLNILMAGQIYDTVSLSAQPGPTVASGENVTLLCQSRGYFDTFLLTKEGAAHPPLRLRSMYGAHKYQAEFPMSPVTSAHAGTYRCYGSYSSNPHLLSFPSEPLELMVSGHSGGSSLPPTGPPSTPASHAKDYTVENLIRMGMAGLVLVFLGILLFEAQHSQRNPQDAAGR

B1: D2M002-103 (antibody, V domains shown)
VH: QVQLVQSGAEVKKPGASVKVSCKASGYTFTRYVMHWVRQAPGQRLEWMGWINPNNEETKYSQKFKGRVTLTRDTSASTAYMELSSLRSEDTAVYYCARADLEILPYYDHARYAMDYWGQGTLVTVSS
VL: DIQMTQSPSSVSASVGDRVTITCRASENIYSHLAWYQQKPGKAPKLLVYNAKSLQSGVPSRFSGSGSGTDFTLTISSLQPEDFATYYCQHFWSTPPTFGGGTKVEIK
notes: also called P212_F01
- Kd [1]: 4.9 nM
- koff [1]: 0.00101 s⁻¹
- kon [1]: 206000 M⁻¹ s⁻¹
- IC50 [2]: 0.07 µg/mL
- IC50 [3]: 0.009 µg/mL
- EC50 (read off the curve) [4]: ~0.1 µg/mL
- EC50 (read off the curve) [5]: ~0.06 µg/mL
- EC50 [6]: 0.136 µg/mL
- Kd [7]: 1.1 nM
- EC50 [8]: 0.065 µg/mL
- IC50 (read off the curve) [9]: ~0.07 µg/mL
- Kd [10]: 1.03 nM
- Kd [11]: 0.165 nM
- koff [11]: 0.000129 s⁻¹
- kon [11]: 781000 M⁻¹ s⁻¹
- Kd [12]: 0.136 nM

B2: D2M002-103HV1 (antibody, V domains shown)
VH: B1 VH with M48I, W50Y
VL: B1 VL
notes: Humanized and optimized variant of the D2M002-002 lineage
- EC50 [13]: 0.0941 µg/mL
- MaxMFI [13]: 111000
- EC50 [14]: 0.157 µg/mL
- MaxMFI [14]: 20300
- EC50 [15]: 0.0473 µg/mL
- EC50 (read off the curve) [16]: ~0.06 µg/mL
- EC50 (read off the curve) [17]: ~0.2 µg/mL
- EC50 [18]: 0.12 µg/mL
- EC50 (read off the curve) [19]: ~0.1 µg/mL
- EC50 (read off the curve) [20]: ~0.06 µg/mL
- EC50 (read off the curve) [21]: ~0.1 µg/mL
- EC50 [22]: 0.0599 µg/mL
- MaxMFI [22]: 30000
- EC50 [23]: 0.059 µg/mL
- EC50 [24]: 0.059 µg/mL

B3: D2M002-004 (antibody, human IgG1, V domains shown)
VH: EVQLQQSGAELVRPGALVKLSCKASGFNIKDYYMHWVKQRPEQGLEWIGWIDPESGNTIYDPKFQGKASMTADTSSNTAYLQLSSLTSEDTAVYYCARLDGSSYYAMDYWGQGTSVTVSS
VL: DILLTQSPASLAVSLGQRATISCRASESVDSYGNSFMHWYQQKPGQPPKLLIYLASNLESGVPARFSGSGSRTDFTLTIDPVEADDAATYYCQQNNEDPLTFGAGTKLELK
notes: Hit; also called clone #4
- EC50 [25]: 0.004 µg/mL
- gMFI (max) [25]: 14300
- Kd [26]: 1000 nM
- Kd [27]: 23.6 nM
- binding result [28]: no binding (tested: 5 µg/mL)

B4: #45 (antibody, human IgG1, V domains shown)
VH: QIQLLQSGPELKKPGETVKISCKASGYTFTDYSMHWVKQAPGKGLKWMGWINTETGEPTYADDFKGRFAFSLETSASTAYLQINNLKNEDTATYFCARVVRRGYFDVWGAGTTVTVSS
VL: DIQMTQSPASLSASVGETVTITCRASGNIHNYLAWYQQKQGKSPQVLVYNAKTLADGVPSRFSGSGSGTQYSLKINSLQPEDFGSYYCQHFWSTPFTFGSGTKLEIK
notes: also called D2M002-045
- Kd [26]: 1000 nM
- Kd [27]: 94.4 nM
- binding result [29]: no binding (tested: 5 µg/mL)
